# Results as given in the supplement of paper PMC9170038.
# Test system: K4 kissing-loop RNA reporter
# Experiment: apparent KD of K4 kissing-loop reporter; higher = weaker reporter binding
# Details: Eterna round: R107; input ligand: FMN 200 uM
# Experimental: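 RNA-MaP round R107: designed RNA switches with theophylline, tryptophan, arginine or FMN aptamers are transcribed on-chip within common flanks. They are titrated with a labelled K4 kissing-loop RNA reporter in RNA-MaP buffer (100 mM Tris pH 7.5, 80 mM KCl, 4 mM MgCl2), without ligand or with the indicated ligand. Median apparent KD per design.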
# 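Further: bound reporter read as fluorescence of individual clusters on recovered sequencing chips by microscopy, with normalized cluster intensities fitted with a binding model.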
row,Sequence,apparent KD of K4 kissing-loop reporter [nM]
1,AUGGUUGUCGUAGGAUAUGUAGGAUAUUCUAAAAUAUGAAGUGAUGUUUCUAUAAUAAGAAGAAGGACAGAAGGACGAUAACCAC [FmnBS 1 - SaraBot transfer #DoubleAptamer],90.4
2,AGCUAGUACGCAGGAUAUUGAACAUCAUUUAGUGAGAUCGAGUGAUGUUCGAUCACGACUUCAGUUCGAGAAGGGCGUACUAGCA [#02 K4 FMN B Same State],160
3,AGUGAUGUGGGAAGGAGCGCUAUAAGACUUCAGUGAUGUUGAAGUGCUGGUUUAGUGUUGUAGCAGGUAGGUCGCCUAGAUGUUA [KL-XARG-B11],293
4,UUCCUAUUAUUAACACUAUAUACAACUGAAGGAGCGACAAUAAAGUCAGGUAGGUCGCAGAAUUAAUGAGUGAUGUUCAUUUUUA [JR_ExcArginiA_Sub013],81.9
5,GGAUGGUAGGCGGCCGCCACUAAAACUGAACAAAUAUAAACCAGUGAUGUUGGUAUGAUGAAGUAUAGGACCGGGCCUAGAUAGA [Exclusion - Tryptophan B (Freestyle 1)],124
6,GGGAGGAAAAUUUUCCUCAAAAGUUGGCUACAGGAUAUCGUGGGAAUGAGAAGGGUAACCGAGACGCCCAGUGAUGUUGGGUGCC [Antegete],415
7,AAGCAGUCUCUUGUAGUCAUCGAAGAUGAACGAGGACCGGUACGGCCGCCACUCGGAGUGAUGUUCCGAAGGCUGCAAAAUAAAA [MatMod 18 - Jieux - Exclusion - Tryptophan A],300
8,AAUUAAUACAGAAGGAGCGUGUUUUUUAAUUUAUUUUCAUGAUCGAGUGAUGUUCGAUAUACACAGGUAGGUCGCUGUAUAUUUA [JR_SSArginiB_Sub008],98.8
9,AUUUGUUUAUGUGAUACCAGACUUUGCAGUGAUGUUGCUUUUAUUUUUGAAUUUUAAAUAGUCCCUUGGCAGCACUAUGUAUUUA [JR_SSTheophyB_Sub009],65.5
10,GGUGCUGUCUGUGCCGCCCUCCUCGUCCCUCGAGGACCGGUACGGCCGCCACUCGAGUGAUGUUCGGGUAGCCCUCCCUGCCAGC [BDazzled - #21 Exc. Tryptophan A],493
11,UGAACCCGGUCGGCCGCCACUCUGAGAACCAUCGCCCUACGUGCAGUGAUGUUGUACCUAAUGAGGAGGACCGGGACUGGGCGGC [theeternabot_sameState_KL_Trp_B_36],316
12,AGUCUGUAUGACAUAAGUGAUGUUUAUGUUCGAGGACCGGUACGGCCGCCACUCGCAAAUGUAUGAUUUCACGUUUGUGCAAGUA [KL-XTryp-A #analogue],196
13,AAUGAUGAUUGACACAUUUACUAAAAGGAAGGAGCGGCGAAGUAGCCAGGUAGGUCGCCUUAUAGCAGUGAUGUUGCUAUUUGUU [JR_Nu_ExcArginiA_Sub027],59
14,AGUGUACAGUCGGCCGCCACUCACUCCUCCUGCGUUAACGAGUGAUGUUUGUUUUUUAGUGGUACGAGGACCGGGACUUCUCUGA [theeternabot_sameState_KL_Trp_B_35],237
15,AAACAUCACUGGGAGUGAUGUUCUCAGUGACGAGGACCGGUACGGCCGCCACUCGCGAGAGAUAUAGAUGAGUAAUGACAUCAUU [Excl Tryptophan A V3],277
16,AGUGAUGUUGUGUUAUGUUUGGGAAGUGAUCGAGGACCGGUACGGCCGCCACUCGAGUGAUGAGUGAGUGAUGUUUGUUUAGGGA [whbob_SS_Tryp_A_m9],1060
17,GGAUCCACCAGUGAUGUUGGAGAAAACUUCAAGGAUAUGACGAAAGUCAGAAGGUGGUAGACUGGGCAAAGUCCGGUCGGAUCCA [FmnA10 U29+G66],543
18,UUUUAAAUAUCUGAUACCAGAGAAAAUAUAUGUAGUGAUGUUAUAUACAAAAUAAAUAAGCUCCCUUGGCAGCAGUAUUAAUUUU [AstrosExyTheB#1],655
19,GGUAGCAUCGCGGCCGCCACUAAUCGCUAAGGCUCAGGACCCUAAUAGCGAGUGAUGUUCGCCCUUAGGACCGGGCGAUGCUACC,114
20,UGAUACCAGACUGAUACCAGCCAGUGAUGUUGGCAAUAUCCAAGGUGAGUCAAAGACUCGGGCCCUUGGCAGCAGUCUGGUAUCU [TheoBX 7 #SwitchBubble #StaticStem],146
21,GAUUUAGAGGCGGCCGCCACUAGUGAUGUUAGUGAUGUUUGAUACUGUAUAUAUCGGCGUGUAGAUAGGACCGGGCCAGAUGGAG [tbqqmullin],281
22,GCAGUGAUGUUGCGGAUGUACAGUGGAGUGCGAGGACCGGUACGGCCGCCACUCGUACAGAACAAGCUAAUAUAUCGAUAGGUGA [X],203
23,UAAUGUGGCACAGGAUAUACUGAUUGGAGUGAUGUUCCAAACAUGGACGUGAGACUUUUACAAGAAGUAGAAGGGUGUUAGAUAU [Exclusion FMN B GF 20],241
24,AGGCACGAGCAAGGAUAUCGAGUAGAGUGAUGUUCUGCCUGGGUUGGCCCGAAAGGGCCUUCCCAGCGAGAAGGUGCUCGUGCCU [#2 Same State - FMN A Attempt #9 (HarryS)],222
